The test addresses insulin receptor ectodomain (UniProt P06213). The test can be described thus: SPR; insulin receptor immobilised; svPDE flowed at 0.25, 0.5, 1.0, 2.0, 4.0 and 8.0 uM; KD by steady-state affinity model; apparent.

For “snake venom phosphodiesterase (svPDE) from Naja atra (from UniProt A0A2D0TC04 1-830)”, the Kd came out at 1800 nM.

Source of the values: paper PMC10121219.
